Results on 30 sequences are retold here after the nanobody polyreactivity screen of Harvey et al. (2022).

The series in a line: yeast display, Sf9 membrane polyspecificity reagent, FACS + sequencing; frameworks hold sequencing errors. In outline: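 Using colony PCR, genes from sorted yeast display clones were amplified, then sequenced on MiSeq at 2 × 250 and filtered by CDR length. The clones had been stained with 10% biotinylated, detergent-solubilized Sf9 membrane reagent for 1 hour at 4 °C and sorted by FACS into low and high (top ~1%) gates on anti-HA and streptavidin fluorescence. Polyreactivity labels come from the gate of origin.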
As for “QVQIVESGAGLVQAGGSLRISCAPSGLTFGYYAMGWYRQAPGKERELVAAISSSGVNTYYADSVKGRFTISRDNAKNTVYLQMNSLKPEDTAVYYCNTVPKPWYSWKYAYDYWGHGTQVTVSS”, the “polyreactivity (PSR sort gate)” value is “high polyreactivity”.

As for “QVQIVESGAGLVQAGGSLSLSCDASGFIFVWYAMGWYRQAPGKERELVAAISWTGGSTYYADSVKGRFTISRDNAKNTVYLQINSLKPEDTAVYYCAATYEFYPEELDYWGQGTQVTVSS”, the “polyreactivity (PSR sort gate)” value is “low polyreactivity”.

Take “QVQIVESGGGIVQAGGSLRLSSAASGSTFSFYVMGWYRHAPGKEREWVAAISWSSVGTYYADSVKGRFTISRDNAKNTVYLQMNSLKPDDTAVYYCAAERYRRVAKHGYWGQGTQVTVSS”: the “polyreactivity (PSR sort gate)” value is on record as “high polyreactivity”.

On to “QVQIVESGGGLVQAAGSLRLSCAASGSTFQTYAMGWYRQAPGKERELVAAITSGGSTNYADSVKGRFTISRDNAKNTVYLQMNSLKPEDTAVSYCAVRQIYQTSDHRLQYDYWGQGTQVTVSS”, for which the “polyreactivity (PSR sort gate)” value is listed as “low polyreactivity”.

Regarding “QVQIVESGGGLVQAGGRLRLSCAYSGLIISWYAMGCDIQSPGKERELVAAISGSVGSTYYADPVKGRFTISRDNAKNTVYLQMNSLKPEDTAVYYCAARSKDGGGPMYYWGQGTQVTVSS”, the “polyreactivity (PSR sort gate)” value was “high polyreactivity”.

As to “QVQIVESGGGLVQAGGSHRISCAASGLIFQSNAMGWYRQAPGKESELVAAISTAGSTNYADSVKGRFTISRDNAKNTFYFQMNSLIPQDTAVYYFAAQVSTPYRYPRQMLYDSWGQGTQVTVSS”, the “polyreactivity (PSR sort gate)” value was “low polyreactivity”.

In the case of “QVQIVESGGGLVQAGGSHRLSCAASGSTFDAYAMGWYRQEPGKEREMVAAISTRGGRTYYADSVKGRFTISRDNAKNTVYLQMNSLKPEDTAVYYCNAVVARVNVRGTPAFDYWGQGTQVTVSS”, the “polyreactivity (PSR sort gate)” value is reported as “high polyreactivity”.

In the case of “QVQIVESGGGLVQAGGSLPLSSAPSGSIFAPYAMGWYRQAPGKERELVAAINISGGTYYADSVKGRFTISRDNAKNTLYLQMNSLKPEDTAVYYCAARYLYGYYGFDYWGQGTQVTVSS”, the “polyreactivity (PSR sort gate)” value is “high polyreactivity”.

Consider “QVQIVESGGGLVQAGGSLRISCAASGRTFRWYAMGWYRQAPGKERELVASITWSGGSTYYADSVKGRFTISRDNAKNSVYLQMNSLKPEDTAVYYCAAEKRYTYVGGPFNYWGQGIQVTVSS”, for which the “polyreactivity (PSR sort gate)” value is recorded as “high polyreactivity”.

With “QVQIVESGGGLVQAGGSLRLICAASGSTFGLNAMGWYRQAPGKERELVAAITRSDITNYADSVKGRFTISRDNAKNTVYLKLNSLKPEDTAVYYCNKTPDRHRRYFGYGYWGQGTLVTVSS”, the “polyreactivity (PSR sort gate)” value was “low polyreactivity”.

“QVQIVESGGGLVQAGGSLRLICAASGYTFTIYAMGWYRQAPGKERELVAAITTIGGRTYYADSVKGRFTISRDNAKNTVYLQMNSLKPEATAVYYCAARARVEGGYRGKFGYWGQGTQLTVSS”: the “polyreactivity (PSR sort gate)” value is recorded as “high polyreactivity”.

On to “QVQIVESGGGLVQAGGSLRLRCAASGRIFAYYAMGWYRQAPGKERELVAAISRSGVSTYYADSVKGRFTISRDNAKNTVYLQMNSLKPEDTAVYYCAARWRSGFTSGDYWGQGTQVTVSS”, for which the “polyreactivity (PSR sort gate)” value is on record as “low polyreactivity”.

As to “QVQIVESGGGLVQAGGSLRLRCAASGRIIYKNAMGWYRQAPGKERELVAAITTSGGSTYYADSVKGRFTISRDNSKNTVYLEMNSLKPEDTAVYYCATRGHYRQTINYWGQGTQVTVSS”, the “polyreactivity (PSR sort gate)” value was “high polyreactivity”.

“QVQIVESGGGLVQAGGSLRLSCAASGFIFDNNAMGWSRQAPWKESELFATITSGGRTNYADSVKGRFTISRDNAKNTVYLRMNCLKPEDTAVYYCAAFYYLCSRRKTRDYWGQGTQVTVSS”: the “polyreactivity (PSR sort gate)” value was “low polyreactivity”.

Turning to “QVQIVESGGGLVQAGGSLRLSCAASGFTFRGYAMGCYRQAPAKERELVAAISRSGGSTNYADSVKGRFTISRDNAKNTVYLKMNSMKPEDTAVYYCAAGWNPYDYWGQGTQVTVSS”, the “polyreactivity (PSR sort gate)” value is “high polyreactivity”.

For “QVQIVESGGGLVQAGGSLRLSCAASGIFYAMGWYRQAPWTKRELDDAISSVGSTNYADSVKGRFSISRDNAKNTVYLQMNSLKPEDTAVYYCAAYFYTYPVDRYGSYYWGQVTQVTVSS”, the “polyreactivity (PSR sort gate)” value was “low polyreactivity”.

Consider “QVQIVESGGGLVQAGGSLRLSCAASGIIFRYYAMGWYRQAPGKERELVAAISSSGVSTYYADSVKGRFTISRDYAKNTVYLQMNSLKPEDTAVYYCAAVTTWRIDYWGQGTQVNVSS”, for which the “polyreactivity (PSR sort gate)” value is “high polyreactivity”.

On to “QVQIVESGGGLVQAGGSLRLSCAASGITFHDYAMGWDRQEPGQERELVATIRSSTYYADSVKGRFTISRDTAKNTVYLQMNSLKTEDTAVYYCNVRLSYSYISPSDWNFDYWGQGTQVTVSS”, for which the “polyreactivity (PSR sort gate)” value is on record as “low polyreactivity”.

Turning to “QVQIVESGGGLVQAGGSLRLSCAASGITFRRNAMGWYRQAPGKERELVAVITSVGTTYYADSVKGRFTISRDNAKNTVYLQMNSLKPEDTAVYYCAARFYWGQGTQVTVSS”, the “polyreactivity (PSR sort gate)” value is “high polyreactivity”.

For the sequence “QVQIVESGGGLVQAGGSLRLSCAASGRIFCGNVMGWYRQAPGKERELVAAISGRGGRTYYAHSVKGRFTISRDNAKNTVYLQMNSLKPEDTAVYYCAASTGEEISGKRYNYWGQGTQVTVSS”, the “polyreactivity (PSR sort gate)” value is reported as “high polyreactivity”.

For “QVQIVESGGGLVQAGGSLRLSCAASGRIFDSYAMGWYRQAPGKERELVAAISQNSGSTYYADSVKGRFTISRDNEKNTVYLQMNSLKPEDTAVYYCAATRKTKRFGYWGQGTQVTVSS”, the “polyreactivity (PSR sort gate)” value is given as “high polyreactivity”.

Regarding “QVQIVESGGGLVQAGGSLRLSCAASGRIFHWYTMGWYRQAPGKERELVAAISGSGGSTHYADSVKGRFTISRDNAKNTVYLQMNSLKPEDTAVYYCAADDGFYGQDLDYWGQGTQVTVSS”, the “polyreactivity (PSR sort gate)” value was “low polyreactivity”.

Regarding “QVQIVESGGGLVQAGGSLRLSCAASGRIFQPYAMGWYRQATGKERELVAAITRRAGSTYYADSVKGRFTISRDNANNTVYVQMNSLKPEDTAVYYCAARGLYWAYEMEYWGQGTQVTVSS”, the “polyreactivity (PSR sort gate)” value is given as “low polyreactivity”.

As for “QVQIVESGGGLVQAGGSLRLSCAASGRIFTVYGKGWYRQAPGKERELVAAISWSGGGTYYADSVKGRFTISRDNAQNTVYLQKNSLKPDDTAVYYCNADRQYTWSLVFFSSEYDYWGQGTQVTVSS”, the “polyreactivity (PSR sort gate)” value is reported as “low polyreactivity”.

On to “QVQIVESGGGLVQAGGSLRLSCAASGRIFWAYAMGWYRQAPGKERELVAAITSGGSTYYADSVKGRFTISRDNAKNTVYLQMNRLKPDDTAVYYCAVGSNWVDDSPEDEYWGQGTQVTVSS”, for which the “polyreactivity (PSR sort gate)” value was “low polyreactivity”.

With “QVQIVESGGGLVQAGGSLRLSCAASGRIIKGYAMGWYRQAPGKDMELVADISEDGGSTYYADSVKGRFTISRDNAKNTVYLQMNSLKTEDTAVYFCAAEYYVVNYAIGYDYWGQGTQVTVSS”, the “polyreactivity (PSR sort gate)” value is “low polyreactivity”.

In the case of “QVQIVESGGGLVQAGGSLRLSCAASGRTFVVNAMGWYRQAPGKERELVASISNKGSTYYADSVKGRFTISRDNAKNTVYLQMNSLNPEDTAVYYCAADEYWSWDGTRYGVHYYYWGQGTQVTVSS”, the “polyreactivity (PSR sort gate)” value is on record as “low polyreactivity”.

“QVQIVESGGGLVQAGGSLRLSCAASGRTFWGNAMGWYRQAPGKERELVASISSRGSSTYYADSVKGRFTISRDNAKNTVYLQMNSLKPEDTAVYYCAARTHYFPWPWYVWDYYSDGYWGQGTQVTVSS”: the “polyreactivity (PSR sort gate)” value is “low polyreactivity”.

For “QVQIVESGGGLVQAGGSLRLSCAASGRTLYQYSMGWYRQAPGKERELVAAITTSTGNTYYADSVKARFTISRDNAKYTVYSQMNSLKPEDTAVYYCAADTVWRLDYWGQGTQVTVSS”, the “polyreactivity (PSR sort gate)” value is listed as “low polyreactivity”.

On to “QVQIVESGGGLVQAGGSLRLSCAASGRTYKYYAMGWYRQAPGKERELDAGITSGSSTSYADSVKGRFTISRDNAKNTVYLQMNSLKPEDTAVYYCAAGIYPYRYDYWGQGTQVTVSS”, for which the “polyreactivity (PSR sort gate)” value was “high polyreactivity”.
